Measurements published in IntAct's records for PubMed 21131967.

B1: Transcription factor p65 (Mus musculus), Q04207 (parent)
chain: MDDLFPLIFPSEPAQASGPYVEIIEQPKQRGMRFRYKCEGRSAGSIPGERSTDTTKTHPTIKINGYTGPGTVRISLVTKDPPHRPHPHELVGKDCRDGYYEADLCPDRSIHSFQNLGIQCVKKRDLEQAISQRIQTNNNPFHVPIEEQRGDYDLNAVRLCFQVTVRDPAGRPLLLTPVLSHPIFDNRAPNTAELKICRVNRNSGSCLGGDEIFLLCDKVQKEDIEVYFTGPGWEARGSFSQADVHRQVAIVFRTPPYADPSLQAPVRVSMQLRRPSDRELSEPMEFQYLPDTDDRHRIEEKRKRTYETFKSIMKKSPFNGPTEPRPPTRRIAVPTRNSTSVPKPAPQPYTFPASLSTINFDEFSPMLLPSGQISNQALALAPSSAPVLAQTMVPSSAMVPLAQPPAPAPVLTPGPPQSLSAPVPKSTQAGEGTLSEALLHLQFDADEDLGALLGNSTDPGVFTDLASVDNSEFQQLLNQGVSMSHSTAEPMLMEYPEAITRLVTGSQRPPDPAPTPLGTSGLPNGLSGDEDFSSIADMDFSALLSQISS
partner: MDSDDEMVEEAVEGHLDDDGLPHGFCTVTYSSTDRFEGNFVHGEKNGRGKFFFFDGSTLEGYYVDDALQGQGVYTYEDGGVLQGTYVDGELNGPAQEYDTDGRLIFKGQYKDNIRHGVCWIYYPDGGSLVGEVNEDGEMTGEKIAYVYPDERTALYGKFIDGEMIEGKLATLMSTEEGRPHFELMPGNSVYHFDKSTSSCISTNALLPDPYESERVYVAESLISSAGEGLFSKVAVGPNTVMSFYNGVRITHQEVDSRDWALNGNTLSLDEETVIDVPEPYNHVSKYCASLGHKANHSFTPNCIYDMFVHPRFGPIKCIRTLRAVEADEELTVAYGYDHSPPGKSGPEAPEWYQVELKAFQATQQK
B2: N-lysine methyltransferase SETD6 (Homo sapiens), Q8TBK2 (parent)
chain: MATQAKRPRVAGPVDGGDLDPVACFLSWCRRVGLELSPKVSERAGGRRTRGGARAALTSPPAQVAVSRQGTVAGYGMVARESVQAGELLFVVPRAALLSQHTCSIGGLLERERVALQSQSGWVPLLLALLHELQAPASRWRPYFALWPELGRLEHPMFWPEEERRCLLQGTGVPEAVEKDLANIRSEYQSIVLPFMEAHPDLFSLRVRSLELYHQLVALVMAYSFQEPLEEEEDEKEPNSPVMVPAADILNHLANHNANLEYSANCLRMVATQPIPKGHEIFNTYGQMANWQLIHMYGFVEPYPDNTDDTADIQMVTVREAALQGTKTEAERHLVYERWDFLCKLEMVGEEGAFVIGREEVLTEEELTTTLKVLCMPAEEFRELKDQDGGGDDKREEGSLTITNIPKLKASWRQLLQNSVLLTLQTYATDLKTDQGLLSNKEVYAKLSWREQQALQVRYGQKMILHQLLELTS
B3: Transcription factor p65 (Mus musculus), Q04207 (parent)
chain: B1 chain
partner: B2 chain

Variants of: B1
Details: with setd7_human SETD7, Q8WTS6

Variant | effect of a mutation on the interaction
MDDLFPLIFPSEPAQASGPYVEIIEQPKQRGMRFRYKCEGRSAGSIPGERSTDTTKTHPTIKINGYTGPGTVRISLVTKDPPHRPHPHELVGKDCRDGYYEADLCPDRSIHSFQNLGIQCVKKRDLEQAISQRIQTNNNPFHVPIEEQRGDYDLNAVRLCFQVTVRDPAGRPLLLTPVLSHPIFDNRAPNTAELKICRVNRNSGSCLGGDEIFLLCDKVQKEDIEVYFTGPGWEARGSFSQADVHRQVAIVFRTPPYADPSLQAPVRVSMQLRRPSDRELSEPMEFQYLPDTDDRHRIEEKRKRTYETFRSIMKKSPFNGPTEPRPPTRRIAVPTRNSTSVPKPAPQPYTFPASLSTINFDEFSPMLLPSGQISNQALALAPSSAPVLAQTMVPSSAMVPLAQPPAPAPVLTPGPPQSLSAPVPKSTQAGEGTLSEALLHLQFDADEDLGALLGNSTDPGVFTDLASVDNSEFQQLLNQGVSMSHSTAEPMLMEYPEAITRLVTGSQRPPDPAPTPLGTSGLPNGLSGDEDFSSIADMDFSALLSQISS [K310R] | disrupting interaction

Variants of: B2
Details: with tf65_mouse Rela, Q04207

Variant | effect of a mutation on the interaction
MATQAKRPRVAGPVDGGDLDPVACFLSWCRRVGLELSPKVSERAGGRRTRGGARAALTSPPAQVAVSRQGTVAGYGMVARESVQAGELLFVVPRAALLSQHTCSIGGLLERERVALQSQSGWVPLLLALLHELQAPASRWRPYFALWPELGRLEHPMFWPEEERRCLLQGTGVPEAVEKDLANIRSEYQSIVLPFMEAHPDLFSLRVRSLELYHQLVALVMAYSFQEPLEEEEDEKEPNSPVMVPAADILNHLANHNANLEYSANCLRMVATQPIPKGHEIFNTAGQMANWQLIHMYGFVEPYPDNTDDTADIQMVTVREAALQGTKTEAERHLVYERWDFLCKLEMVGEEGAFVIGREEVLTEEELTTTLKVLCMPAEEFRELKDQDGGGDDKREEGSLTITNIPKLKASWRQLLQNSVLLTLQTYATDLKTDQGLLSNKEVYAKLSWREQQALQVRYGQKMILHQLLELTS [Y285A] | disrupting interaction

Variants of: B3
Details: with setd6_human SETD6, Q8TBK2

Variant | effect of a mutation on the interaction
MDDLFPLIFPSEPAQASGPYVEIIEQPKQRGMRFRYKCEGRSAGSIPGERSTDTTKTHPTIKINGYTGPGTVRISLVTKDPPHRPHPHELVGKDCRDGYYEADLCPDRSIHSFQNLGIQCVKKRDLEQAISQRIQTNNNPFHVPIEEQRGDYDLNAVRLCFQVTVRDPAGRPLLLTPVLSHPIFDNRAPNTAELKICRVNRNSGSCLGGDEIFLLCDKVQKEDIEVYFTGPGWEARGSFSQADVHRQVAIVFRTPPYADPSLQAPVRVSMQLRRPSDRELSEPMEFQYLPDTDDRHRIEEKRKRTYETFRSIMKKSPFNGPTEPRPPTRRIAVPTRNSTSVPKPAPQPYTFPASLSTINFDEFSPMLLPSGQISNQALALAPSSAPVLAQTMVPSSAMVPLAQPPAPAPVLTPGPPQSLSAPVPKSTQAGEGTLSEALLHLQFDADEDLGALLGNSTDPGVFTDLASVDNSEFQQLLNQGVSMSHSTAEPMLMEYPEAITRLVTGSQRPPDPAPTPLGTSGLPNGLSGDEDFSSIADMDFSALLSQISS [K310R] | disrupting interaction
